# From patent US20250197488A1 (MABWELL SHANGHAI BIOSCIENCE, published 2025)
# Numbering of substitutions follows the chain as printed.
# B1: Hy18A10 (antibody, V domains shown)
# VH: QVQLQQPGAELVKPGASVKMSCKASGYKFITYNMDWVKQTPGQGLEWIGTIYPGNGDTSYNQKFKGKATLTADKSSSTAYMQLSSLTSEDSAVYYCARGDLYALDYWGQGTSVTVSS
# VL: SIVMTQTPKFLLVSAGDRVTITCKASQSVSNDVAWYQQKPGQSPKLLIYSASNRYTGVPDRFTGSGYGTDFTFTINTVQAEDLAVYFCQHDYSSPYTFGGGTKLEIKR
# notes: murine hybridoma antibody
# B2: mu18A10 (antibody, V domains shown)
# VH: B1 VH
# VL: B1 VL
# notes: also called recombinant murine antibody 18A10
# B3: 3C6-mFc (antibody, mouse IgG1)
# heavy: EVQLVQSGAEVKKPGASVKISCKASGYTFTDYNMDWVKQAPGQRLEWIGDINPHNGGPIYNQKFTGRATLTVDKSASTAYMELSSLRSEDTAVYYCARGELGHWYFDVWGQGTTVTVSSAKTTPPSVYPLAPGSAAQTNSMVTLGCLVKGYFPEPVTVTWNSGSLSSGVHTFPAVLQSDLYTLSSSVTVPSSTWPSETVTCNVAHPASSTKVDKKIVPRDCGCKPCICTVPEVSSVFIFPPKPKDVLTITLTPKVTCVVVDISKDDPEVQFSWFVDDVEVHTAQTQPREEQFNSTFRSVSELPIMHQDWLNGKEFKCRVNSAAFPAPIEKTISKTKGRPKAPQVYTIPPPKEQMAKDKVSLTCMITDFFPEDITVEWQWNGQPAENYKNTQPIMDTDGSYFVYSKLNVQKSNWEAGNTFTCSVLHEGLHNHHTEKSLSHSPGK
# light: DIVLTQSPASLALSPGERATLSCRASKSVSTSGYSYIHWYQQKPGQAPRLLIYLASNLDSGVPARFSGSGSGTDFTLTISSLEEEDFATYYCQHSRDLPPTFGQGTKLEIKRTVAAPTVSIFPPSSEQLTSGGASVVCFLNNFYPKDINVKWKIDGSERQNGVLNSWTDQDSKDSTYSMSSTLTLTKDEYERHNSYTCEATHKTSTSPIVKSFNRNEC
# notes: murine IgG1 constant regions; also called positive control anti-IL-11 antibody
# B4: Hy8C8 (antibody, V domains shown)
# VH: DVQLVESGGGLVQPGGSRKLSCAASGFTFSSFGMHWVRQSPERGLEWVAYITSGSNTIYYADTVKGRFTISRDNPENTLFLQMTSLRSEDTAMYYCAREYYSYDEGFAYWGQGTLVTVSA
# VL: EIVLTQSPTTMAASPGEKITITCSVSSSISSNYLHWYQQKPGFSPKLLIYRTSNLASGVPARFSGSGSGTSHSLTIDTMEAEDVATYYCQQGVDVPFTFGSGTKLEIKR
# notes: murine hybridoma antibody
# B5: IL-11 (Cat. 12225-HNCE, Sino Biological Inc.) (ligand, UniProt P20809 22-199, looked up)
# chain: PGPPPGPPRVSPDPRAELDSTVLLTRSLLADTRQLAAQLRDKFPADGDHNLDSLPTLAMSAGALGALQLPGVLTRLRADLLSYLRHVQWLRRAGGSSLKTLEPELGTLQARLDRLLRRLQLLMSRLALPQPPPDPPAPPLAPPSSAWGGIRAAHAILGGLHLTLDWAVRGLLLLKTRL
# Assays:
# mIL11 = biological target: T1, mIL11; test: direct ELISA, hybridoma supernatant on plate-immobilised murine IL-11, OD450
# T1 construct: also called murine IL-11 (NP_032376.1, Pro22-Leu199)
# T1 cytokine chain: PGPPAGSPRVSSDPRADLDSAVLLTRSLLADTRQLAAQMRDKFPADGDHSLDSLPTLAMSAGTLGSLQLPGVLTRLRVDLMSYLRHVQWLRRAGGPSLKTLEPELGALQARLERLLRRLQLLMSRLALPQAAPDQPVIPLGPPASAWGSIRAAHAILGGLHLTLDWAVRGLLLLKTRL
# Excerpt: Murine anti-IL-11 hybridoma monoclones 5C2, 8C8, 16B5, 18A10, 18H10, 23G6 and 29C11 were obtained by murine hybridoma technology. The binding activity of the supernatants of those clones to human IL-11 (AAH12506.1, Pro22-Leu199; SEQ ID NO.128) and murine IL-11 (NP_032376.1, Pro22-Leu199; SEQ ID NO.129) immobilized on the surface of ELISA plates was detected via direct ELISA.
# [1] = biological target: T2, human IL-11 (AAH12506.1, Pro22-Leu199) (human, UniProt P20809 22-199); test: BLI (Octet QKe), antibody on anti-mouse Fc probe, human IL-11 300 nM
# T2 construct: The range Pro22-Leu199 counts on AAH12506.1; The Octet runs say only 'human IL-11'; also called hIL-11
# T2 chain: B5 chain with H154L
# Protocol: When the hybridoma cells were cultured to a certain number, culture supernatants were collected and purified using Protein G affinity chromatography to obtain murine hybridoma antibodies (Hy5C2, Hy8C8, Hy16B5, Hy18A10, Hy18H10, Hy23G6 and Hy29C11). The affinity of the murine antibodies purified from the hybridoma supernatants was determined using an Octet QKe System instrument from Fortebio Inc. with an anti-mouse IgG Fc Capture biosensor to capture the Fc fragments of the antibodies, for which an anti-IL-11 antibody named “3C6-mFc” recombinantly expressed was used at the same concentration as a positive control. Specifically, a hybridoma supernatant was diluted with HBS-EP+ buffer (GE), and was allowed to pass through the surface of AMC probes (Cat: 18-5088, PALL), and so the antibody in the hybridoma supernatant was captured on the surface of the probes; then, human IL-11 diluted in the HBS-EP+ buffer (300 nM) was used as a mobile phase to react with the antibody captured on the surface of the probes. Both the binding and the dissociating were conducted for 300 seconds. When the experiment was finished, data from which response values of blank controls had been deducted was fitted using a 1:1 Langmuir binding model by software, and then kinetic constants for antigen-antibody binding were calculated. Binding signals were detected on the Octet QKe System instrument with Hy5C2, Hy8C8, Hy16B5, Hy18A10, and Hy18H10.
# [2] = biological target: B5; test: competition ELISA: IL-11Rα-His coated, IL-11 + antibody + gp130-Fc
# Protocol: The activity of the recombinant murine anti-IL-11 antibodies for blocking the formation of IL-11/IL-11Rα/GP130 complex was analyzed via competition ELISA. IL-11Rα-His (NP_004503.1, Met1-Val363, C-terminus-6-His Tag) was firstly added into ELISA plates to be coated overnight. Next day, samples were prepared as follows. […] After co-incubating and washing, an HRP conjugated anti-human Fc secondary antibody was added to develop the color which was then detected.
# [3] = biological target: T3, human IL-11Rα, full length, stably expressed on STAT3-Luc HEK293 cells (human, UniProt Q14626 23-422); test: cell-based or functional assay
# T3 sequence (looked up): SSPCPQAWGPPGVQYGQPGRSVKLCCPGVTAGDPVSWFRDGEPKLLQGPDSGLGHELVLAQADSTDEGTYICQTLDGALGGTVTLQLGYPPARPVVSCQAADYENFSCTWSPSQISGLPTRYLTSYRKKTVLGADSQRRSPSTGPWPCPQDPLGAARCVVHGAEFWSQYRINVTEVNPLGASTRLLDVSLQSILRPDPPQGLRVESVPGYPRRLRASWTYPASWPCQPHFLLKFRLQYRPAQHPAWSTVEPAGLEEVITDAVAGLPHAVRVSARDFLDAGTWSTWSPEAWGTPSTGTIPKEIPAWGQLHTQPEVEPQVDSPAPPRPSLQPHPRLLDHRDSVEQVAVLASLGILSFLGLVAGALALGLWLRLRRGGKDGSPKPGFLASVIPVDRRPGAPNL
binder,measurement,setting,value
B1,binding result,mIL11,binds
same,Kd,[1],1.09 nM
same,koff,[1],0.00187 s⁻¹
same,kon,[1],1.71e+06 M⁻¹ s⁻¹
B2,IC50,[2],1.4 µg/mL
B3,IC50,[2],2.1 µg/mL
same,Kd,[1],0.712 nM
same,koff,[1],0.000581 s⁻¹
same,kon,[1],816000 M⁻¹ s⁻¹
B4,binding result,mIL11,binds
same,Kd,[1],1.3 nM
same,koff,[1],0.00204 s⁻¹
same,kon,[1],1.51e+06 M⁻¹ s⁻¹
B5,EC50 of IL-11 in stimulating the transcriptional expression of STAT3-luc reporter gene,[3],0.11 ng/mL
